This note sets out measurements from publication PMC5907831 (Journal of Molecular Cell Biology, 2017).

The experiment deals with SRP72. The experiment is described as follows: Binding ability of Flag-tagged SRP68 mutants from HCT116 cell lysate. It counts as cell-based, human. The note with it: HCT116 cells; Flag-tagged SRP68 mutant from cell lysate.

B1: SRP68 F590L: cancer-associated SRP68 mutant (protein, UniProt Q9UHB9 1-627, looked up, variant F590L)
Signal recognition particle …: MAAEKQVPGGGGGGGSGGGGGSGGGGSGGGRGAGGEENKENERPSAGSKANKEFGDSLSLEILQIIKESQQQHGLRHGDFQRYRGYCSRRQRRLRKTLNFKMGNRHKFTGKKVTEELLTDNRYLLLVLMDAERAWSYAMQLKQEANTEPRKRFHLLSRLRKAVKHAEELERLCESNRVDAKTKLEAQAYTAYLSGMLRFEHQEWKAAIEAFNKCKTIYEKLASAFTEEQAVLYNQRVEEISPNIRYCAYNIGDQSAINELMQMRLRSGGTEGLLAEKLEALITQTRAKQAATMSEVEWRGRTVPVKIDKVRIFLLGLADNEAAIVQAESEETKERLFESMLSECRDAIQVVREELKPDQKQRDYILEGEPGKVSNLQYLHSYLTYIKLSTAIKRNENMAKGLQRALLQQQPEDDSKRSPRPQDLIRLYDIILQNLVELLQLPGLEEDKAFQKEIGLKTLVFKAYRCFFIAQSYVLVKKWSEALVLYDRVLKYANEVNSDAGAFKNSLKDLPDVQELITQVRSEKCSLQAAAILDANDAHQTETSSSQVKDNKPLVERFETFCLDPSLVTKQANLVHFPPGFQPIPCKPLLFDLALNHVAFPPLEDKLEQKTKSGLTGYIKGIFGFRS
Take B1: the “binding ability compared with wild-type (HCT116)” value is “severely compromised or abolished the binding ability”.
